Experiment [1] concerns the target Cas7b, backbone subunit of the Synechocystis sp. PCC 6714 type I-B Cascade (Synechocystis sp. PCC 6714). The experiment can be described thus: cryo-EM structure; SEC-purified Cascade with crRNA and a 59-bp ATG-PAM dsDNA target; full R-loop (higher than 3.6 Å) and partial R-loop (3.8 Å) states.
Experiment [2] deals with Cas11b, small subunit of the Synechocystis sp. PCC 6714 type I-B Cascade (Synechocystis sp. PCC 6714). The description is as above.

“Cas7b, backbone subunit of the Synechocystis sp. PCC 6714 type I-B Cascade (natural protein)”: in experiment [1], the stoichiometry N (in general, the number of molecules, sites or subunits per partner or assembly) turned out to be 7.

“Cas11b, small subunit of the Synechocystis sp. PCC 6714 type I-B Cascade (natural protein)” gave a stoichiometry N in experiment [2] of 3.

Values taken from publication PMC11096372.
